According to publication PMC9187738:

Target: hamster JUNO (hamster)
Assay: live imaging-based adhesion molecule (LIAM) assay; BHK cells, non-inducible expression (cytomegalovirus promoter); separately transfected cells mixed in equal amounts 4 h after transfection, incubated 20 h, imaged every 6 min for 12 h at 40x, 37 °C, 5% CO2; read-outs: accumulation at the cell interface and translocation to the opposite cell, % of contacting cell pairs

IZUMO1 accumulation (% of contacting cell pairs): 78%
B1: mouse IZUMO1-Venus (natural protein)
chain: CIKCDQFVTDALKTFENTYLNDHLPHDIHKNVMRMVNHEVSSFGVVTSAEDSYLGAVDENTLEQATWSFLKDLKRITDSDLKGELFIKELLWMLRHQKDIFNNLARQFQKEVLCPNKCGVMSQTLIWCLKCEKQLHICRKSLDCGERHIEVHRSEDLVLDCLLSWHRASKGLTDYSFYRVWENSSETLIAKGKEPYLTKSMVGPEDAGNYRCVLDTINQGHATVIRYDVTVLPPKHSEENQPPNIITQEEHETPVHVTPQTPPGQEPESELYPELHPELYPELIPTVAQNPEKKMKTRLLILLTLGFVVLVASIIISVLHFRKVSAKLKNASDEVKPTASGSKSDQSLSQQMGLKKASQADFNSDYSGDKSEATEN
